Paper PMC10030653, “ClpC2 protects mycobacteria against a natural antibiotic targeting ClpC1-dependent protein degradation” (Communications Biology, 2023)

Biological target: Mycobacterium tuberculosis ClpC2 (full length, wild type) (Mycobacterium tuberculosis)
Assay: SEC

“Mycobacterium tuberculosis ClpC2 (full length, wild type) (natural protein)” gave a stoichiometry N of 2.
